# Data from patent publication US11827911B2, “Chimeric bacteriophage lysin with activity against Staphylococci bacteria” (priority 2008, dated 2023).
# B1: phiNM3 CWT domain: cell wall targeting domain, amino acid residues 158-251 of S. aureus phage phiNM3 lysin, approximately 10-kDa; tested FITC-labeled (protein)
# chain: GKSASKITVGSKAPYNLKWSKGAYFNAKIDGLGATSATRYGDNRTNYRFDVGQAVYAPGTLIYVFEIIDGWCRIYWNNHNEWIWHERLIVKEVF
# modifications: FITC label; Staphylococcus aureus phage phiNM3
# notes: cell wall targeting domain, amino acid residues 158-251 of S. aureus phage phiNM3 lysin, approximately 10-kDa; tested FITC-labeled
# Columns and labels:
# [1] = system: MRSA strain MW2; assay: Systemic MRSA infection model, survival; assay type: in vivo, FVB/NJ mice; conditions: 100 μg/mouse of oxacillin alone, 10 days
# Description: In order to assess whether ClyS treatment could prevent death resulting from systemic MRSA infections, 4 week old FVB/NJ mice were intraperitoneally injected with ˜5×10^5 CFU of the community-acquired MRSA strain MW2 in 5% mucin. Preliminary experiments determined that 5×10^5 CFU was 10× the LD100 dose for a twenty-four hour period. Furthermore, within 3 hours of IP injection the MRSA infection was systemic. i.e., MRSA were recovered in high numbers from heart, liver, spleen, and kidney (data not shown). Treatment occurred three hours post-infection, with either 20 mM phosphate buffer or 1 mg of ClyS in 20 mM phosphate buffer injected IP (intraperitoneally). Mice were then monitored for survival over ten days. The results from three independent experiments were combined (ClyS treatment, n=16; buffer treatment, n=14) and the mice survival data plotted with a Kaplan Meier Survival curve (FIG. 12), Within twenty-four hours all of the control mice died of bacterial sepsis, while only 2/16 of ClyS treated mice died at forty-eight hours, and the remaining mice (14/16, 88%) survived over the course of the experiments (FIG. 12).
# To determine if this effect could be seen in our systemic MRSA infection model, FVB/NJ mice were intraperitoneally injected with ˜5×10^5 CFUs of the MRSA strain MW2 as above. Three hours post infection mice were treated in parallel, with a lower IP dose of 130 μg/mouse of ClyS combined with different concentrations of oxacillin (10-100 μg/mouse) or buffer alone controls. Preliminary experiments determined that an ED30 dose of ClyS (130 μg/mouse) had minimal efficacy to evaluate the effect of combinatorial treatment with oxacillin (data not shown). Mice were monitored for survival for 10 days and the results of 5 independent experiments were combined and plotted in a Kaplan Meier Survival curve (FIG. 14).
# [2] = system: MRSA strain COL; assay: Checkerboard broth-microdilution assay; assay type: cell-based, Staphylococcus aureus; conditions: Staphylococcus aureus, read-out: MIC
# Description: We used the checkerboard broth-microdilution assay to test the interaction of ClyS with vancomycin and with oxacillin. […] Isobolograms for ClyS with vancomycin and ClyS with oxacillin was plotted by transcribing the enzyme concentrations along the inhibitory line on the microtiter plate in an x/y plot.
# [3] = system: staphylococcal strains; conditions: by altering peptide cross-bridges; cited from earlier work
# [4] = system: S. aureus; assay: Binding of FITC-labeled phiNM3 CWT to bacterial cells, fluorescence microscopy; design: species or system Staphylococcus aureus; conditions: FITC-labeled protein 50 μg, 10 minutes; single or mixed populations
# Description: (§1) Most preferably, the binding molecule is a soluble binding domain of a bacterial lysin comprising a polypeptide including an amino acid sequence providing specific binding to S. aureus, such as SEQ ID NO:1 (phiNM3 CWT domain). For example, the lysin preferably includes the polypeptide sequence of S. aureus phage phiNM3 lysin (SEQ ID NO:1) (protein accession number YP_908849). The phiNM3 lysin CWT domain (SEQ ID NO:1) corresponding to amino acid residues 158-251 was cloned and expressed. […] FIG. 2A is […] showing the protein of SEQ ID NO:1 in a second column next to a set of marker proteins in a first column. […] Group A streptococci, E. coli and Bacillus cereus were used as controls.
# Fluorescent labeling and binding analyses were performed on phiNM3 CWT. S. aureus strain 8325-4 genomic DNA was used to amplify the putative CWT of phiNM3 lysin using primers NM3-FWD […]-3′ (SEQ ID NO:10) and NM3-REV 5′-[…]-3′(SEQ ID NO:11). The resulting amplicon was cloned into the arabinose-inducible expression vector pBAD24. Positive clones containing the insert were confirmed by sequencing. […] The labeled-protein (50 μg) was incubated with bacterial cells for 10 minutes, washed 3× with phosphate-buffered saline (pH 7.4) and observed under fluorescence microscope.
# [5] = system: Bacillus cereus; assay: as above; conditions: FITC-labeled protein 50 μg, 10 minutes
# Description: as §1
# (§2) Fluorescent labeling and binding analyses were performed on phiNM3 CWT. S. aureus strain 8325-4 genomic DNA was used to amplify the putative CWT of phiNM3 lysin using primers NM3-FWD […]-3′ (SEQ ID NO:10) and NM3-REV 5′-[…]-3′(SEQ ID NO:11). The resulting amplicon was cloned into the arabinose-inducible expression vector pBAD24. Positive clones containing the insert were confirmed by sequencing. The approximately 10-kDa phiNM3 CWT protein was expressed and the protein was purified in one step by cation-exchange chromatography. The purified protein (1 mg/ml) was incubated with 10 μl of FITC (1 mg/ml) for 1 hour. Excess FITC was removed on a desalting column. The labeled-protein (50 μg) was incubated with bacterial cells for 10 minutes, washed 3× with phosphate-buffered saline (pH 7.4) and observed under fluorescence microscope.
# [6] = system: E. coli; assay: as above; conditions: FITC-labeled protein 50 μg, 10 minutes
# Description: as §1, §2
# [7] = system: Group A streptococci; assay: as above; conditions: FITC-labeled protein 50 μg, 10 minutes
# Description: as §1, §2
# [8] = system: S. epidermidis; assay: as above; conditions: FITC-labeled protein 50 μg, 10 minutes
# Description: as §1, §2
# [9] = Solubility of expressed lysins and chimeras; conditions: qualitative
# Description: In another embodiment, the lysin is a chimeric protein that comprises an endopeptidase domain of the S. aureus Twort lysin upstream of the phiNM3 CWT domain (SEQ ID NO:1). The chimeric polypeptide is preferably sufficiently soluble in phosphate buffered saline (PBS). Preferred levels of solubility in PBS for the chimeric lysins is at least about 1 mg/ml and more preferably at least about 3 mg/mL. in PBS. […] One example of such a lysin is provided in SEQ ID NO:2 (AD127), shown in FIG. 5A and consisting of the Twort lysin endopeptidase domain attached to the phiNM3 CWT domain (SEQ ID NO:1). The isolated polypeptide of SEQ ID NO:2 (AD 127) was constructed by engineering S. epidermidis autolysin amidase and Twort lysin endopeptidase domains upstream of phiNM3 CWT domain, respectively.
# Traditionally, Bacillus-specific lysins are expressed at high levels and are soluble in E. coli. Therefore, our first attempt was to engineer a 16-amino acid peptide (4) that is conserved in several S. aureus-specific lysins (Lu J Z, Fujiwara T, Komatsuzawa H, Sugai M, Sakon J. 2006. Cell wall-targeting domain of glycylglycine endopeptidase distinguishes among peptidoglycan cross-bridges. (Lue et al. (2006) J. Biol. Chem. 281(1):549-58) The catalytic domain of the Bacillus-specific lysin PlyB was used to generate chimera AD 103 (FIG. 4) (SEQ ID NO: 13). The chimeras were tested for expression, solubility and activity. Then the entire C-terminal CWT domain of PlyB (6) was replaced by the putative C-terminal domain of S. aureus phage Twort lysin (8) to obtain AD 105 (SEQ ID NO: 14). […] Since the lysostaphin catalytic domain […] (10) in AD 112 was of bacterial origin, we attempted to engineer a phage-derived catalytic domain upstream of the lysostaphin CWT. For this, the endopeptidase domain in Twort lysin (14) was used to construct chimera AD 119 (SEQ ID NO:3).
molecule,measurement,setting,value
"Cc1onc(-c2ccccc2)c1C(=O)N[C@@H]1C(=O)N2[C@@H]1SC(C)(C)[C@@H]2C(=O)O [oxacillin, reference compound]",survival,[1],35%
same,MIC,[2],32 µg/mL
lysostaphin: staphylolytic enzyme produced by Staphylococcus simulans,frequency of developing resistance,[3],10^−6
B1,binding to S. aureus cells,[4],bound specifically
same,binding to Bacillus,[5],not observed
same,binding to E. coli,[6],not observed
same,binding to streptococci,[7],not observed
same,binding to S. epidermidis cells,[8],bound specifically
same,solubility of the expressed protein,[9],highly soluble
